This is an account of results in the supplement of paper PMC9170038.

This series concerns MS2 coat protein. The experiment in a line: apparent KD of MS2 coat protein; designed switch direction (-1 OFF switch, 1 ON switch): -1; higher = weaker reporter binding. In outline:
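Normalised cluster fluorescence was curve-fitted, and each design's median over clusters is its apparent KD. Before this, SNAP-549-labelled MS2 coat protein was titrated from 0.7 or 1.5 nM, doubling to 3 µM, over RNA switches transcribed on Illumina chips by stalled E. coli RNA polymerase. Titrations had no input, 200 uM small-molecule ligand, or an oligonucleotide input, and steps lasted 0.8–1.5 h (lowest) to 10–20 min (highest).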

The mark [1] stands for this setting: input ligand: microRNA oligo, concentration not stated.
Setting [2] is: Eterna round: R95, input ligand: FMN 200 uM.
The mark [3] stands for this setting: Eterna round: R95, input ligand: microRNA oligo, concentration not stated.
The mark [4] stands for this setting: Eterna round: R95, input ligand: none.

For “AAACGGCAGGGAGGAUAUGCUUGCCUGGGUCGUCUUCAGACAUGAGGAUCACCCAUGUAGUCGACGCAGAAGGCCCUCAAAGCC [JL ViennaUCT Ontiis mod 5] (Eterna round: R96, puzzle: Exclusion NG 2)”, the “apparent KD of MS2 coat protein” value by setting is: (input ligand: FMN 200 uM) 158 nM; under setting [1], 16.2 nM; (input ligand: none) 18.1 nM.

“UAGUUACAUGAGGAUCACCCAUGUGAGGAUAUGAGUCAGUCACGGUGACGUGGCUGACUCAGAAGGCACAAUGG [Mat - Exclusion 1 - JL Mod - D45] (Eterna round: R97, puzzle: Exclusion 1)”: the “apparent KD of MS2 coat protein” value is, setting by setting: (input ligand: FMN 200 uM) 77.4 nM; (input ligand: none) 256 nM.

“GCUCCAGGAGGAUAUGCAUUCGAAAACAUGAGGAUCACCCAUGUAGGUGUCCUCGUGCGAGCAGAAGGCCUAAAAC [Rebebiso] (Eterna round: R97, puzzle: Exclusion 5)”: the “apparent KD of MS2 coat protein” value is 145 nM (input ligand: FMN 200 uM) and 208 nM (input ligand: none).

For the sequence “AGUACUAACACGAAAGUGUUAGUACCAUAAGCUUGUGAAACAUGAGGAUCACCCAUGUCCUCAUAAGCUCGUCUUAU [salish99_TOv2_r3_041] (puzzle: Sensor v3, turn-off variant 2)”, the “apparent KD of MS2 coat protein” value came to 18.8 nM under setting [2], 720 nM under setting [3] and 19.5 nM under setting [4].

Regarding “UUAACAUGCUGGUGAUCAUACAUGAGGAUCACCCAUGUAACAAGCUUUUUGCUCGUCUUAAUUUAAUUGAUUACUAG [Stov1/8-A1] (Eterna round: R97, puzzle: Sensor, turn-off variant 1)”, the “apparent KD of MS2 coat protein” value by setting is: (input ligand: FMN 200 uM) 120 nM; (input ligand: none) 134 nM.

Regarding “AAAGGAUGCCUAGGAUAUUGACGAAGAAAGGAUUAAGAAGGAGGAAAUAUAUGAGGGAUCCACAUGAGGAUCACCCAUGUACAC [Beveinveor] (Eterna round: R96, puzzle: Exclusion NG 1)”, the “apparent KD of MS2 coat protein” value reads like this: (input ligand: FMN 200 uM) 538 nM; under setting [1], 458 nM; (input ligand: none) 270 nM.

As for “CUUUUGUGAGGAUAUUAGUAUUAAAUAAAUAAAAUUACUACUGAGAAGGCACAUGAGGAUCACCCAUGUUCCUC [salish99_ex4_r3_050] (puzzle: Exclusion 4)”, the “apparent KD of MS2 coat protein” value under setting [3] is 33.6 nM.

“UUGAACCCGGUAGGAUAUAUUGUGGGCAAACAUGGAACAACAUGAGGAUCACCCAUGUAAUUUAGGUAGAAGGGCCAAAAGAUU [Excl-NG2-LRO06] (Eterna round: R96, puzzle: Exclusion NG 2)”: the “apparent KD of MS2 coat protein” value by setting is: (input ligand: FMN 200 uM) 72.1 nM; under setting [1], 61 nM; (input ligand: none) 69.9 nM.

As to “UUUUCCUGGCAAGGAUAUCCUGUGCGGUUCCGGCUCGUGUCUGUUACAUGAGGAUCACCCAUGUGGGAGAAGGUGCCUGUGGUU [Design 89] (Eterna round: R96, puzzle: Exclusion NG 2)”, the “apparent KD of MS2 coat protein” value is 272 nM (input ligand: FMN 200 uM), 34.3 nM under setting [1] and 41.7 nM (input ligand: none).

For the sequence “AAUUCGCAAGCGAGAUCCCACAUGAGGAUCACCCAUGUGCUCGUCUUAUAAGGUACUGUGACGAAAGUCACGGUACC [Mat - Sensor, turn-off var - Eli Mod - D85] (Eterna round: R97, puzzle: Sensor, turn-off variant 1)”, the “apparent KD of MS2 coat protein” value reads like this: (input ligand: FMN 200 uM) 16.2 nM; (input ligand: none) 17.1 nM.

For the sequence “GGCCGGGCAGGAUAUGCGUGGGUCCUCAUGAGGACCCACGUACAUGAGGAUCACCCAUGUAGAAGGGCCCGGCC (Eterna round: R97, puzzle: Exclusion 2)”, the “apparent KD of MS2 coat protein” value reads like this: (input ligand: FMN 200 uM) 17.6 nM; (input ligand: none) 14.2 nM.

“AGAGUGUGAGGAUAUAUGGUGAAGAUGAAGAAAGAGAAGGAGUAGAAGGUACAUGAGGAUCACCCAUGUUGAGG [JR_Exclu4_Sub071] (puzzle: Exclusion 4)”: the “apparent KD of MS2 coat protein” value is, setting by setting: under setting [2], 44.8 nM; under setting [3], 47.8 nM; under setting [4], 45.5 nM.

Take “UCUGUUGAAGGAUAUGCGUAACGAGUUACGGCUCAAGGUCUACAUGAGGAUCACCCAUGUAGAAGGUCAUCAGA [EX2 #71] (Eterna round: R97, puzzle: Exclusion 2)”: the “apparent KD of MS2 coat protein” value by setting is: (input ligand: FMN 200 uM) 19.5 nM; (input ligand: none) 17.4 nM.

Regarding “GAGCUGUGAGGAUAUACAUGAGGAUCACCCAUGUUAAGGAAGUGGUGUAUAUUGUAGUGUAGAAGGCACUUGUG [JR_Ex3_Sub025] (Eterna round: R97, puzzle: Exclusion 3)”, the “apparent KD of MS2 coat protein” value (input ligand: FMN 200 uM) was 600 nM and the “apparent KD of MS2 coat protein” value (input ligand: none) was 306 nM.

For the sequence “CCGGUUGGCGCAGGAUAUACAUGAGGAUCACCCAUGUUCAUGAGGAUCGCCCAUGAGUUUUUGUUGUAGAAGGGUGGCCCGGCC (Eterna round: R96, puzzle: Exclusion NG 2)”, the “apparent KD of MS2 coat protein” value reads like this: (input ligand: FMN 200 uM) 92.4 nM; under setting [1], 70 nM; (input ligand: none) 84 nM.

Turning to “CCCAUGUCAGGAUAUUAAUUGAGCAGGAAGCCCUGUCCACUUGAGAAGGGACAUGAGGAUCACCCAUGUAAAAC [Radiaena] (Eterna round: R97, puzzle: Exclusion 4)”, the “apparent KD of MS2 coat protein” value (input ligand: FMN 200 uM) is 138 nM and the “apparent KD of MS2 coat protein” value (input ligand: none) turned out to be 417 nM.

For the sequence “CUUCGUAUAGAGGAUAUAGGAUACUGCGGUGUCCUAGAAGGCUGUACAUGAGGAUCACCCAUGUACUUCAGAUC [Exclusion 6 - B - 14:c] (puzzle: Exclusion 6)”, under setting [3], the “apparent KD of MS2 coat protein” value was 12 nM.

Consider “CUCGUGUGAGGAUAUCCUCUUAUAUAACAAAGGUUGAAGCAGGAGAAGGCACAUGAGGAUCACCCAUGUGCAUA [EX4 C.6] (Eterna round: R97, puzzle: Exclusion 4)”, for which the “apparent KD of MS2 coat protein” value (input ligand: FMN 200 uM) is 46.4 nM and the “apparent KD of MS2 coat protein” value (input ligand: none) is 16.9 nM.

Take “GAUUAUGCGAGCUUUAGGGACAUGAGGAUCACCCAUGUUCGUCUUAUUGAUCUAGGUACGCUGACGUACCUAAAUCU [Mod of one of jandersonlee's solutions] (puzzle: Sensor v3, turn-off variant 1)”: the “apparent KD of MS2 coat protein” value under setting [2] came out at 20.5 nM, the “apparent KD of MS2 coat protein” value under setting [3] was found to be 35.2 nM and the “apparent KD of MS2 coat protein” value under setting [4] was determined as 23.4 nM.

Take “GUCCGGCAUGUAGGAUAUGGAUCCGAUUAGGAUUUAGAAGGACAUGAGGAUCACCCAUGUACAUGUAAUUAGUCAUUACCGGAC [EXclNG1-LROPPY02] (Eterna round: R96, puzzle: Exclusion NG 1)”: the “apparent KD of MS2 coat protein” value (input ligand: FMN 200 uM) came out at 40.2 nM, the “apparent KD of MS2 coat protein” value under setting [1] is 17.8 nM and the “apparent KD of MS2 coat protein” value (input ligand: none) was found to be 22.2 nM.

As for “UACAUGAGGAUCACCCAUGUUUUGUCGUGUAUGGUAUUUAUCUAGGAUAUCAAGUUACUUAUUUAUGAGAAGGAGAAUAUUAAU [JMF's solution 30] (Eterna round: R96, puzzle: Exclusion NG 3)”, the “apparent KD of MS2 coat protein” value is, setting by setting: (input ligand: FMN 200 uM) 39.2 nM; under setting [1], 21.2 nM; (input ligand: none) 25.2 nM.

For the sequence “AUUUGCACGCUGCGGUCCUACAUGAGGAUCACCCAUGUGGUCUGGUGGCGUGGGUCGCCGGACUUGGCUCGUCUUGU [salish99_S_TOV1_R5_033] (Eterna round: R97, puzzle: Sensor, turn-off variant 1)”, the “apparent KD of MS2 coat protein” value (input ligand: FMN 200 uM) came to 18.7 nM and the “apparent KD of MS2 coat protein” value (input ligand: none) was 19.5 nM.

“AAGAAACAUGAGGAUCACCCAUGUGAGGAUAUGGCCCGCCCGGCGUGAGCAAAAUAAAUCAGAAGGCACAAAGG [salish99_ex1_r4_009] (Eterna round: R97, puzzle: Exclusion 1)”: the “apparent KD of MS2 coat protein” value was found to be 41 nM (input ligand: FMN 200 uM) and 30.6 nM (input ligand: none).

As for “CAGGACAGAGGAUAUACAUAGAUACAGAUUCAUGUAGAACUACAUGAGGAUCACCCAUGUAGAAGGCUGUCCUG [Fiskers Ex 2 - 3] (puzzle: Exclusion 2)”, the “apparent KD of MS2 coat protein” value under setting [3] amounted to 27.8 nM.

With “CCUAGUUGGUAAGGAUAUCCUACACUGUUCUGACCCGGGCAUGCUACAUGAGGAUCACCCAUGUGGGAGAAGGUGCGUCAUCGC [Design 15] (Eterna round: R96, puzzle: Exclusion NG 2)”, the “apparent KD of MS2 coat protein” value was 30.5 nM (input ligand: FMN 200 uM), 27.1 nM under setting [1] and 37.3 nM (input ligand: none).

Consider “CACUUACAUGAGGAUCACCCAUGUGAGGAUAUCGUGACCUGACGAGAAGUCAAUGUCACGAGAAGGUACAUGGG [Exclusion 1 (Mod 1 solution 97 by Eternabot)] (Eterna round: R97, puzzle: Exclusion 1)”, for which the “apparent KD of MS2 coat protein” value is, setting by setting: (input ligand: FMN 200 uM) 59.3 nM; (input ligand: none) 68.2 nM.

Take “UGCAGACGAGGAUAUGAUUAAUAAUACAUGAGGAUCACCCAUGUAAUACUGAUCUAUGGAUCAGAAGGUGUCUGCA [E5/6-B2] (Eterna round: R97, puzzle: Exclusion 5)”: the “apparent KD of MS2 coat protein” value (input ligand: FMN 200 uM) is 17.7 nM and the “apparent KD of MS2 coat protein” value (input ligand: none) amounted to 28.3 nM.

As for “AAUAAUAAGGAGGAUAUCGUAUCGGAAACGAUACGAGAAGGCCUAACAUGAGGAUCACCCAUGUUCCUUAAAUA [Mat - Exclusion 6 - Eli Mod - D61] (puzzle: Exclusion 6)”, the “apparent KD of MS2 coat protein” value is, setting by setting: under setting [2], 37.3 nM; under setting [3], 19.1 nM; under setting [4], 20.1 nM.

In the case of “GGUCUUCAAGUCAGGAUAUCGUAUAAUAGAUAUAACGAGAAGGGACAUGAGGAUCACCCAUGUCGUCUCAUCAG [Ex4 #21] (Eterna round: R97, puzzle: Brourd's mod of Exclusion 4)”, the “apparent KD of MS2 coat protein” value (input ligand: FMN 200 uM) was 83.9 nM and the “apparent KD of MS2 coat protein” value (input ligand: none) was 27 nM.

In the case of “AGCUGUGGCCGAGGAUAUCUAUCCCAAAUAACCGAAAUAUAAUCGGACAUGAGGAUCACCCAUGUAGAGAAGGCGGUCUCAGCA [Eli eng2 - 088] (Eterna round: R96, puzzle: Exclusion NG 2)”, under setting [1], the “apparent KD of MS2 coat protein” value was 20.4 nM.
